Reference: patent US20100034826A1 (Bristol-Myers Squibb, published 2010)

T1: human PTK7, full length, on the cell surface (human, UniProt Q13308 31-1070)
T1 construct: also called CCK4; protein tyrosine kinase 7
T1 sequence: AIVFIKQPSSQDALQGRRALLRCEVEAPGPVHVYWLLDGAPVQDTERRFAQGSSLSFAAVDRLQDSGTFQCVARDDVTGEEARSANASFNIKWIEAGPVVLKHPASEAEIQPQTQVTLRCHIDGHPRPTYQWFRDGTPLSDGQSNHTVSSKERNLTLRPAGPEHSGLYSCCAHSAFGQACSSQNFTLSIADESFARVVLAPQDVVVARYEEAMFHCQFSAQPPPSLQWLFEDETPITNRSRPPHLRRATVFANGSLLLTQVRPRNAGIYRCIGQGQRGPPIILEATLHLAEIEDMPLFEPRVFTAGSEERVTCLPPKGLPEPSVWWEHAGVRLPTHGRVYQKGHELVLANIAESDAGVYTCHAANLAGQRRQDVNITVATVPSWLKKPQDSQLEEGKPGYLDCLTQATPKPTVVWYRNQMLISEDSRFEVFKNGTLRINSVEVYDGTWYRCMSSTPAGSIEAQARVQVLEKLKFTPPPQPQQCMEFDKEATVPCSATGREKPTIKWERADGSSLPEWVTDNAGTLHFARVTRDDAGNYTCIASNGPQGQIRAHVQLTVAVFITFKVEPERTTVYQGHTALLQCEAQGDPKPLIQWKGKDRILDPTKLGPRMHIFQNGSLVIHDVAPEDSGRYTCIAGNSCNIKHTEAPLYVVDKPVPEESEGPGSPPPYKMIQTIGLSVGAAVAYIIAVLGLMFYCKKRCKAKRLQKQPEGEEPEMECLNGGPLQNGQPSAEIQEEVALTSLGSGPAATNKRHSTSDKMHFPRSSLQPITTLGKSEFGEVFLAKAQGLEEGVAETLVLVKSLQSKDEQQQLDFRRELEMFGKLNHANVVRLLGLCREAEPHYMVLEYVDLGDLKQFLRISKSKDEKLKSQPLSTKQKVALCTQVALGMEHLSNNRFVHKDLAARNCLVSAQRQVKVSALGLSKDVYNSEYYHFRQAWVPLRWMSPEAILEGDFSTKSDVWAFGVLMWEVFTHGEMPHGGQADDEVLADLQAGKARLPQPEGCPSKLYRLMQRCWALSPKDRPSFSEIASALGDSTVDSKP

T2: recombinant extracellular domain of PTK7 (human, UniProt Q13308 31-704)
T2 construct: also called PTK7 extracellular domain
T2 sequence: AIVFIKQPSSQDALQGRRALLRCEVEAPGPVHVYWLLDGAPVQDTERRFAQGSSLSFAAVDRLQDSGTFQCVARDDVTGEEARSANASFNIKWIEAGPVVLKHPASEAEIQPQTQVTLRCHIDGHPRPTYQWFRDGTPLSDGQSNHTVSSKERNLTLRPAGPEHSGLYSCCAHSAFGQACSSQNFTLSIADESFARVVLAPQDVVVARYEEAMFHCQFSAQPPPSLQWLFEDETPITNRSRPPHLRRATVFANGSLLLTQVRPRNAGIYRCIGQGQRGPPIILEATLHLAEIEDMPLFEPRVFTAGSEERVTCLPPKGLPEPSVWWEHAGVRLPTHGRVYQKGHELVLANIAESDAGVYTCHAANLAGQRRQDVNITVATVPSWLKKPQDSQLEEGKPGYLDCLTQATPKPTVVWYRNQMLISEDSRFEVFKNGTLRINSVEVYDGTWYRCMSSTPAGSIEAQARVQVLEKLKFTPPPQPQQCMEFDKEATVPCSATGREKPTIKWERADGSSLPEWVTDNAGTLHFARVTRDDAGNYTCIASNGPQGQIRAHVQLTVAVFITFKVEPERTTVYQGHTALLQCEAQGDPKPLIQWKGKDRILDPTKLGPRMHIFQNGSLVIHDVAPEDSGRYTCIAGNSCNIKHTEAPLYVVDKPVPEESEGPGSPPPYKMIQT


Experiments:
[1] = target: T1, human PTK7, full length, on the cell …; experiment: flow cytometry on Wilms' tumor G-401 cells, antibody from 30 µg/ml in 1:10 dilutions
Procedure: The nephroblastoma Wilms' tumor cell line G-401 (ATCC Acc No. CRL-1441) was tested for binding of the HuMAb anti-PTK7 human monoclonal antibodies 12C6 and 7C8 at different concentrations. Binding of the anti-PTK7 human monoclonal antibodies was assessed by incubating 1×10⁵ cells with antibody at a starting concentration of 30 μg/ml and serially diluting the antibody at a 1:10 dilution. The cells were washed and binding was detected with a PE-labeled anti-human IgG Ab. Flow cytometric analyses were performed using a FACScan flow cytometry (Becton Dickinson, San Jose, Calif.). The anti-PTK7 monoclonal antibodies 12C6 and 7C8 bound to the nephroblastoma Wilms' tumor cell line in a concentration dependent manner, as measured by the mean fluorescent intensity (MFI) of staining.

[2] = target: T1, human PTK7, full length, on the cell …; experiment: cell-based or functional assay
[3] = target: T2, recombinant extracellular domain of PTK7; experiment: ELISA on recombinant extracellular domain of PTK7, antibody from 10 µg/ml in 1:2 dilutions
Procedure: (§1) Recombinant extracellular domain of PTK7 was tested for binding against the anti-PTK7 human monoclonal antibodies 3G8, 4D5, 12C6 and 12C6a at different concentrations. Standard ELISA procedures were performed. The anti-PTK7 human monoclonal antibodies were added at a starting concentration of 10 μg/ml and serially diluted at a 1:2 dilution. Goat-anti-human IgG (kappa chain-specific) polyclonal antibody conjugated with horseradish peroxidase (HRP) was used as secondary antibody. Each of the anti-PTK7 human monoclonal antibodies 3G8, 4D5, 12C6 and 12C6a bound to PTK7.

[4] = target: T1, human PTK7, full length, on the cell …; experiment: flow cytometry on cancer cell lines that express cell surface PTK7, antibody at 10 µg/ml, MFI
Procedure: Binding of the 3G8, 12C6a, 4D5 and 12C6 anti-PTK7 human monoclonal antibodies to a panel of cancer cell lines was assessed by incubating cancer cell lines with anti-PTK7 human monoclonal antibodies at a concentration of 10 μg/ml. […] An isotype control antibody was used as a negative control. The cells were washed and binding was detected with a FITC-labeled anti-human IgG Ab. Flow cytometric analyses were performed using a FACScan flow cytometry (Becton Dickinson, San Jose, Calif.).

[5] = target: T2, recombinant extracellular domain of PTK7; experiment: ELISA on recombinant PTK7 extracellular domain, HRP anti-human IgG (kappa) detection
Procedure: as §1

| EC50 [1] [nM] | EC50, Hum-Zap internalization assay (3H-thymidine incorporation), A-431 cells [2] [nM] | EC50, Hum-Zap internalization assay (3H-thymidine incorporation), PC3 tumor cells [2] [nM] | EC50, Hum-Zap internalization assay (3H-thymidine incorporation), Wilms' tumor cells [2] [nM] | binding result [3] | binding result [4] | EC50 (read off the curve) [5] [µg/mL] | Binder |
| --- | --- | --- | --- | --- | --- | --- | --- |
| 3.43 | 0.183 | 0.265 | 0.179 |  |  |  | anti-PTK7 human monoclonal antibody 7C8 (antibody, V domains shown, Human IgG with kappa light chain, made by a hybridoma; also called 7CS) VH: QVQLVESGGGVVQPGRSLRLSCAASGFTFSSYGMHWVRQAPGKGLEWVAVIWDDGSNKYYVDSVKGRFTISRDNSKNTLYLQMNSLRAEDTAVYYCARDDYYGSGSFNSYYGTDVWGQGTTVTVSS VL: EIVLTQSPATLSLSPGERATLSCRASQSVSIYLAWYQQKPGQAPRLLIYDASNRATGIPARFSGSGSGTDFTLTISSLEPEDFAVYYCQQRSNWPPFTFGPGTKVDIK |
|  |  |  | 0.644 |  |  |  | anti-PTK7 human monoclonal antibody 3G8 (antibody, V domains shown) VH: QVQLVESGGGVVQPGRSLRLSCAASGFIFSNYAMHWVRQAPGKGLEWVAVISYDGNNKYYADSVKGRFTISRDNSKNTLYLQMNSLRAEDTAVYYCAREVWSIDNWGQGTLVTVSS VL: DIQMTQSPSSLSASVGDRVTITCRASQGISSWLAWYQQKPEKAPKSLIYAASSLQSGVPSRFSGSGSGTDFTLTISSLQPEDFATYYCQQYNSYPRTFGQGTKVEIK |
|  |  |  |  | binds | binds |  | anti-PTK7 human monoclonal antibody 12C6a (antibody, V domains shown, Human IgG with kappa light chain, made by a hybridoma; Same VH as 12C6) VH: EVQLVQSGGGLVHPGGSLRLSCAGSGFTFSTYLMYWVRQAPGKTLEWVSAIGSGGDTYYADSVKGRFTISRDNAKNSLYLQMNSLRAEDMAVYYCARGLGYWGQGTLVTVSS VL: DIQMTQSPSSLSASVGDRVTITCRASQGISSWLAWYQQKPEKAPKSLIYAASSLQSGVPSRFSGSGSGTDFTLTISSLQPEDFATYYCQQYNSYPYTFGQGTKLEIK |
|  |  |  | 0.252 |  |  |  | anti-PTK7 human monoclonal antibody 4D5 (antibody, V domains shown) VH: QVQLVESGGGVVQPGRSLRLSCAASGFTFSSYAFHWVRQAPGKGLEWVAVISYDGSIKYYADSVKGRFTISRDNSKNTLYLQMNSLRAEDTAVYYCARTYYFDYWGQGTLVTVSS VL: EIVLTQSPDFQSVTPKEKVTITCRASQSIGSSLHWYQQKPDQSPKLLIKYASQSFSGVPSRFSGSGSGTDFTLTINSLEAEDAAAYYCHQSSSLPITFGQGTRLEIK |
| 4.04 | 166 | 0.318 | 0.205 |  |  | ~0.6 | anti-PTK7 human monoclonal antibody 12C6 (antibody, V domains shown, Human IgG with kappa light chain, made by a hybridoma) VH: EVQLVQSGGGLVHPGGSLRLSCAGSGFTFSTYLMYWVRQAPGKTLEWVSAIGSGGDTYYADSVKGRFTISRDNAKNSLYLQMNSLRAEDMAVYYCARGLGYWGQGTLVTVSS VL: not shown |
